Assay results as given in patent US20110245474A1 (PFENEX, published 2011).

Target: T1, recombinant human granulocyte colony stimulating factor receptor (GCSF-R) (R & D Systems, cat# 381GR/CF), … (human, UniProt Q99062 25-621, limits assumed, biotinylated using NHS-LC-LC-biotin (sites not given))
T1 construct: Bought reagent; also called b-GCSF-R; G-CSF receptor
T1 sequence (looked up): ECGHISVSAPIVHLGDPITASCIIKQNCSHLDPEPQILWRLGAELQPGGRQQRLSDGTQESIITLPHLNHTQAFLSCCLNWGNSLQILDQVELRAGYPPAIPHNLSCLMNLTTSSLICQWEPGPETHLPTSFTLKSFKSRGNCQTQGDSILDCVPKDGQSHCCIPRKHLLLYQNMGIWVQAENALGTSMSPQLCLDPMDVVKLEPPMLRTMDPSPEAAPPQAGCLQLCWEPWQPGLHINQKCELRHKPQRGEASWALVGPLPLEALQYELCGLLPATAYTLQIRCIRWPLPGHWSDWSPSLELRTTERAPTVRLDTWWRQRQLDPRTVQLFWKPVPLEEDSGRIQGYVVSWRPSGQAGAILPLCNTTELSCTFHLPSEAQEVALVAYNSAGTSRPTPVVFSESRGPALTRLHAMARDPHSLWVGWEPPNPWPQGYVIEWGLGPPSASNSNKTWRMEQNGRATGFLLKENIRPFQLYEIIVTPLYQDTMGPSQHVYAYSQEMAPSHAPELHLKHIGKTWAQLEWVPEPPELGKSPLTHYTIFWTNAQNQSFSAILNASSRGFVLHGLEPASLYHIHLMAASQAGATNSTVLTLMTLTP
Test: biolayer interferometry (Octet), biotinylated GCSF-R on streptavidin sensors, soluble lysate fractions, used to quantify the protein against a standard curve
Method: Soluble fractions were prepared by sonication followed by centrifugation. Normalized culture broth samples (400 μL) were sonicated with the Cell Lysis Automated Sonication System (CLASS, Scinomix) with a 24 probe tip horn. The lysates were centrifuged at 14,000×rpm for 20 minutes (4° C.) and the supernatants collected (soluble fraction). Further dilutions of soluble samples for biolayer interferometry analysis were performed in ForteBio's Sample Diluent (PN, described below).
The lyophilized recombinant human granulocyte colony stimulating factor receptor (GCSF-R) (R & D Systems, cat# 381GR/CF) was reconstituted in PBS buffer (Sigma, P3813) to 0.5 mg/mL and biotinylated using NHS-LC-LC-biotin (Pierce, 21343) according to the method described in ForteBio Technical Note: “Biotinylation of Protein for Immobilization onto Streptavidin Sensors.” The biosensors (Streptavidin High Binding FA Biosensors, ForteBio, 18-0009) were hydrated in 1× kinetics buffer (10-fold dilution of 10× Kinetics Buffer, ForteBio, 18-5032 into PBS) for at least 10 minutes. […]
The soluble fraction of the strain array samples were diluted 20-fold into 1× kinetics buffer. […] The samples were read at 200 rpm, 30° C., for 120 sec, and quantitation was calculated from a standard curve at 12, 6, 3, 1.5, 0.75, 0.375, 0.188, and in some cases as low as 0.094 μg/ml.

binding result: binds
B1: recombinant human G-CSF protein comprising an N-terminal methionine (Met-G-CSF), produced in Pseudomonas fluorescens (ligand)
chain: MTPLGPASSLPQSFLLKCLEQVRKIQGDGAALQEKLCATYKLCHPEELVLLGHSLGIPWAPLSSCPSQALQLAGCLSQLHSGLFLYQGLLQALEGISPELGPTLDTLQLDVADFATTIWQQMEELGMAPALQPTQGAMPAFASAFQRRAGGVLVASHLQSFLEVSYRVLRHLAQP
notes: Tested as soluble fraction of P. fluorescens lysates, diluted, not purified; also called hG-CSF
